From US20030207791A1, “Materials and methods relating to the treatment of leukaemias” (priority 2000, published 2003)

How the values were obtained:
[1] = tested on: RARE-G5-TATA reporter (GAL4-VP16 driven transcription); assay: Transcriptional repression of GAL4-VP16 activation, RARE-G5-TATA reporter, transfected HeLa cells; format: cell-based
Method: FIG. 2. Role of the coiled coil of PML in the altered transcriptional properties of PML-RAR (A): Transcriptional repression by RAR and fusion proteins. Hela cells were co-transfected with the RARE-G5-TATA reporter in the absence (C) or presence of increasing amounts (50, 100, 250, 1000 ng) of the indicated expression vectors and then harvested 48 hours after transfection. Levels of expression of RAR and fusion proteins after transfection are shown in (C). (B) RARE and NCoR dependent transcriptional repression by RAR and fusion proteins. Hela cells were co-transfected with the RARE-G5-TATA or the G5-TATA, reporters and 1 μg of control expression vector (C), RAR (R), PML-RAR (P/R) and their respective AHT derivatives, as indicated. (D) RA sensitivity of RAR and fusion proteins. Cells were co-transfected with 500 ng of the indicated expression vectors. 24 hours after transfection, RA was added at the following concentrations: 1, 10, 100 nM, 1, 10 μM, and cells were harvested after additional 24 hours.
To test this hypothesis, the inventors devised an artificial, reporter system to measure transcriptional repression by RAR and chimeric proteins. The RARE-G5-TATA reporter construct has five GAL4 response elements fused to a minimal promoter region: upstream of the GAL4 sites, a RA responsive element (RARE) allows binding of RAR (or fusion proteins). […] RAR over-expression led to decrease of GAL4-VP16 activation, with 30-40% repression observed with the maximal amount of co-transfected RAR expression vector (1 μg, FIG. 2A), while it exerted no effect on the GAL4-VP16-mediated activation of a cognate promoter lacking the RARE (FIG. 2B). A RAR construct carrying the AHT mutation, which abrogates NCoR binding (Horlein et al., 1995), was unable to prevent activation of the RARE-G5-TATA promoter by GAL4-VP16 (FIG. 2B).
Next, the inventors tested the transcriptional regulatory functions of PML-RAR (or derivatives). […] At the maximal concentration tested (1 μg), the inventors observed 80-90% repression with PML-RAR and 30-40% with RAR (FIG. 2A).
Transient transfection of HeLa, NIH 3T3, SAOS and C33A cells was performed by calcium phosphate as described (Lillie and Green, 1989; Minucci et al., 1994). p53-/- MEFs were transiently transfected by lipofection as described (Pearson et al., 2000). Light units were normalized to expression of a co-transfected β-galactosidase expression plasmid. Results are presented as the mean+standard deviations of at least three independent experiments.

GST-NCoR = target: T1, GST-NCoR (Mus musculus, UniProt Q60974); assay: GST-NCoR pull-down assay with in vitro translated 35S labelled proteins; format: binding
T1 construct: made in house
T1 sequence (Q60974 1782-2453): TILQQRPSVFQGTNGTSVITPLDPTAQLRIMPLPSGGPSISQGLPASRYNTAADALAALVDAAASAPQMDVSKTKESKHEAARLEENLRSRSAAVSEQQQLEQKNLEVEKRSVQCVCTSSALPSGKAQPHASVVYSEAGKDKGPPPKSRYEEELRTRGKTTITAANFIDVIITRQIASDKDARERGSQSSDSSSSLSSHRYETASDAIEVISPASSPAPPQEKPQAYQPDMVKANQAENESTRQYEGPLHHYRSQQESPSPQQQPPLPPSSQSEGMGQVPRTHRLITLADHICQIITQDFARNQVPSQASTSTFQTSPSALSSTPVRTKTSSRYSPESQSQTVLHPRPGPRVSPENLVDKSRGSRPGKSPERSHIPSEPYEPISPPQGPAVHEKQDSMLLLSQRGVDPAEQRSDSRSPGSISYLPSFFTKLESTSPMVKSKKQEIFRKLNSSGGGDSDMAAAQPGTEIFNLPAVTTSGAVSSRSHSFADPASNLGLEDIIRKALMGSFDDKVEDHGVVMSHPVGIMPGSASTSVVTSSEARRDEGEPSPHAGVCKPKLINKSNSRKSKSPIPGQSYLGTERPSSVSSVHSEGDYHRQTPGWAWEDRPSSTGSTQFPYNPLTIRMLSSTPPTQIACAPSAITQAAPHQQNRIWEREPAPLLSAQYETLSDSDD
Method: FIG. 1. Enhanced recruitment of NCoR by PML-RAR is due to the coiled coil region of PML. Increasing amounts of GST -NCoR (from 150 ng to 10 μg) coupled to agarose beads were incubated with the indicated in vitro translated, ^35-S labelled proteins. On the left, a schematic representation of the in vitro translated products, with the tripartite motif of PML highlighted (R, RING finger; B, B boxes; CC, coiled coil). The input lanes are loaded with the same amounts used in the pull-down experiments.
Recruitment of the NCoR-HDAC complex is crucial for the transforming potential of PML-RAR. At low concentrations of RA (1-100 nM), the stability of the PML-RAR-NCoR complex is higher than that of the RAR-NCoR complex (Grignani et al., 1998; He et al., 1998; Lin et al., 1998). […] Pull-down assays were performed by incubation of in vitro translated, ^35S labelled PML-RAR or RAR with GST-NCoR coupled to agarose beads.
GST-NCoR (1782-2453) or GST-NCoR (RDIII) purification and in vitro interaction experiments were performed as described, incubating the indicated amounts of GST-NCoR attached to a constant amount of glutathione-agarose beads in the presence of the appropriate ^35-S labelled, in vitro translated proteins(Gelmetti et al., 1998; Grignani et al., 1998; Zamir et al., 1996). The input lanes represent 100% of the total. Coimmunoprecipitation experiments were performed as described(Gelmetti et al., 1998), using extracts from transiently transfected COS-1 cells, or in vitro translated products.

[2] = tested on: U937 cells expressing PML-RAR under the control of an inducible promoter; assay: Differentiation (CD14) of U937 cells with inducible PML-RAR treated with vitamin D and TGFβ; format: cell-based; conditions: for differentiated, CD14+ cells: cells expressing the coiled coil of PML, vitamin D and TGFβ
Text: The cells were either uninduced (ctr column), or induced to express PML-RAR (PML-RAR column). Cells were transduced with retroviral vectors encoding the coiled coil of PML (RBCC) and GFP as a marker, or with retroviral vectors encoding GFP alone as a control (control). […] In cells expressing the coiled coil of PML (gated in the cytofluorimetric analysis based on the positivity for the GFP marker), PML-RAR was unable to block efficiently differentiation (from 90% to 70%). Levels of expression of PML-RAR were unchanged by expressing the coiled coil region of PML.
RAR oligomerization through the coiled coil region of PML is required for its leukemogenic activity, and deletion of the PML coiled coil is sufficient to lead to loss of oncogenic potential (Minucci et al., 2000). Small molecule compounds able to disrupt PML-RAR oligomers would therefore be able to revert the leukemic phenotype.

B1: CC-RAR: fusion of the coiled coil region of PML to RAR (protein)
chain: SELKCDISAEIQQRQEELDAMTQALQALQEQDSAEGAVHAQMHAAVGQLGRARAETEELIRERVRQVVAHVRAQERELLEAVDARYQRDYEEMASRLGRLDAVLQRIRTGSALVQRMKCYASDQEVLDMHGFLRQALCRLRMASNSSSCPTPGGGHLNGYPVPPYAFFFPPMLGGLSPPGALTTLQHQLPVSGYSTPSPATIETQSSSSEEIVPSPPSPPPLPRIYKPCFVCQDKSSGYHYGVSACEGCKGFFRRSIQKNMVYTCHRDKNCIINKVTRNRCQYCRLQKCFEVGMSKESVRNDRNKKKKEVPKPECSESYTLTPEVGELIEKVRKAHQETFPALCQLGKYTTNNSSEQRVSLDIDLWDKFSELSTKCIIKTVEFAKQLPGFTTLTIADQITLLKAACLDILILRICTRYTPEQDTMTFSDGLTLNRTQMHNAGFGPLTDLVFAFANQLLPLEMDDAETGLLSAICLICGDRQDLEQPDRVDMLQEPLLEALKVYVRKRRPSRPHMFPKMLMKITDLRSISAKGAERVITLKMEIPGSMPPLIQEMLENSEGLDTLSGQPGGGGRDGGGLAPPPGSCSPSLSPSSNRSSPATHSP
[1]
  capacity to repress GAL4-VP16 driven transcription: as strongly as PML-RAR
GST-NCoR; increasing amounts of GST-NCoR
  binding to GST-NCoR: same characteristics of binding as PML-RAR

B2: RAR: retinoic acid receptor α, wild type (protein)
chain: MASNSSSCPTPGGGHLNGYPVPPYAFFFPPMLGGLSPPGALTTLQHQLPVSGYSTPSPATIETQSSSSEEIVPSPPSPPPLPRIYKPCFVCQDKSSGYHYGVSACEGCKGFFRRSIQKNMVYTCHRDKNCIINKVTRNRCQYCRLQKCFEVGMSKESVRNDRNKKKKEVPKPECSESYTLTPEVGELIEKVRKAHQETFPALCQLGKYTTNNSSEQRVSLDIDLWDKFSELSTKCIIKTVEFAKQLPGFTTLTIADQITLLKAACLDILILRICTRYTPEQDTMTFSDGLTLNRTQMHNAGFGPLTDLVFAFANQLLPLEMDDAETGLLSAICLICGDRQDLEQPDRVDMLQEPLLEALKVYVRKRRPSRPHMFPKMLMKITDLRSISAKGAERVITLKMEIPGSMPPLIQEMLENSEGLDTLSGQPGGGGRDGGGLAPPPGSCSPSLSPSSNRSSPATHSP
[1]
  amount of expression vector necessary to measure significant transcriptional repression: at least 250 ng
[1]; maximal amount of expression vector, 1 μg
  repression of GAL4-VP16 activation: 30-40%
GST-NCoR; GST-NCoR 150 ng to 10 μg
  higher amounts of GST-NCoR required to obtain significant binding, compared with PML-RAR: 15-30 fold

B3: coiled coil of PML: coiled coil of PML including the additional amino-terminal region, expressed from retroviral vector (protein)
chain: MEPAPARSPRPQQDPARPQEPTMPPPETPSEGRQPSPSPSPTERAPASEEEFQFLRCQQCQAEAKCPKLLPCLHTLCSGCLEASGMQCPICQAPWPLGADTPALDNVFFESLQRRLSVYRQIVDAQAVCTRCKESADFWCFECEQLLCAKCFEAHQWFLKHEARPLAELRNQSVREFLDGTRKTNNIFCSNPNHRTPTLTSIYCRGCSKPLCCSCALLDSSHSELKCDISAEIQQRQEELDAMTQALQEQDSAFGAVHAQMHAAVGQLGRARAETEELIRERVRQVVAHVRAQERELLEAVDARYQRDYEEMASRLGRLDAVLQRIRTGSALVQRMKCYASDQEVLDMHGFLRQALCRLR
[2]; PML-RAR induced
  differentiated, CD14+ cells: 70%
[2]; uninduced cells
  toxicity: did not notice appreciable toxicity
[2]; uninduced
  differentiated, CD14+ cells: 90%
